Blank lines part the entries; values can stand above or below the binder they belong to.
Target: T1, BOTRYTIS-INDUCED KINASE1 (BIK1), His-tagged recombinant protein (Arabidopsis thaliana, UniProt O48814 1-395)
T1 construct: BOTRYTIS-INDUCED KINASE1 (BIK1), Arabidopsis thaliana, full-length ORF cloned into pET-28; source: E. coli BL21, purified (Ni-Sepharose beads)
T1 sequence (looked up): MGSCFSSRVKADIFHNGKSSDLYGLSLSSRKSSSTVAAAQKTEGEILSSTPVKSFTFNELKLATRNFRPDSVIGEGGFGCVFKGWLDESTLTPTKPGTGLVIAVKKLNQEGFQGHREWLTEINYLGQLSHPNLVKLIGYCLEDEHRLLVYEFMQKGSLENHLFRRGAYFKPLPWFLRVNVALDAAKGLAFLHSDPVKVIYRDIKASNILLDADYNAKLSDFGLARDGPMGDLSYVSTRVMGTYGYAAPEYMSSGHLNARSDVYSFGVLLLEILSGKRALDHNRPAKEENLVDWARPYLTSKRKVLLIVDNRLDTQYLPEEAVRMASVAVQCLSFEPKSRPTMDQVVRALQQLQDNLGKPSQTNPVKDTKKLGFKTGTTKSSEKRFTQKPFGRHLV
Assay: pull-down; 10 µg BIK1-His and 10 µg GST-ER/ERL1/ERL2-CD or GST with glutathione agarose beads, 25 mM Tris-HCl pH 7.5, 150 mM NaCl, 1 mM DTT, 3 h; eluted with 30 mM glutathione; BIK1-His detected with anti-His antibody
Details: both partners purified

- binding result: binds
B1: ER-LIKE1 (ERL1) cytoplasmic domain, GST-tagged recombinant protein (domain or fragment, Arabidopsis thaliana, UniProt C0LGW6 604-966, looked up)
chain: YKSMQQKKILQGSSKQAEGLTKLVILHMDMAIHTFDDIMRVTENLNEKFIIGYGASSTVYKCALKSSRPIAIKRLYNQYPHNLREFETELETIGSIRHRNIVSLHGYALSPTGNLLFYDYMENGSLWDLLHGSLKKVKLDWETRLKIAVGAAQGLAYLHHDCTPRIIHRDIKSSNILLDENFEAHLSDFGIAKSIPASKTHASTYVLGTIGYIDPEYARTSRINEKSDIYSFGIVLLELLTGKKAVDNEANLHQLILSKADDNTVMEAVDPEVTVTCMDLGHIRKTFQLALLCTKRNPLERPTMLEVSRVLLSLVPSLQVAKKLPSLDHSTKKLQQENEVRNPDAEASQWFVQFREVISKSSI
notes: ER-LIKE1 (ERL1), Arabidopsis thaliana, truncated to the cytoplasmic domain (CD), in pGEX-4T-1; also called GST-ERL1-CD; source: E. coli BL21, purified (Glutathione Sepharose beads)

- binding result: binds
B2: ERL2 cytoplasmic domain, GST-tagged recombinant protein (domain or fragment, Arabidopsis thaliana, UniProt Q6XAT2 607-967, looked up)
chain: YKSKQQKPVLKGSSKQPEGSTKLVILHMDMAIHTFDDIMRVTENLDEKYIIGYGASSTVYKCTSKTSRPIAIKRIYNQYPSNFREFETELETIGSIRHRNIVSLHGYALSPFGNLLFYDYMENGSLWDLLHGPGKKVKLDWETRLKIAVGAAQGLAYLHHDCTPRIIHRDIKSSNILLDGNFEARLSDFGIAKSIPATKTYASTYVLGTIGYIDPEYARTSRLNEKSDIYSFGIVLLELLTGKKAVDNEANLHQMILSKADDNTVMEAVDAEVSVTCMDSGHIKKTFQLALLCTKRNPLERPTMQEVSRVLLSLVPSPPPKKLPSPAKVQEGEERRESHSSDTTTPQWFVQFREDISKSSL
notes: ERL2 (ER-LIKE2), Arabidopsis thaliana, truncated to the cytoplasmic domain (CD), in pGEX-4T-1; also called GST-ERL2-CD; source: E. coli BL21, purified (Glutathione Sepharose beads)

- binding result: binds
B3: ERECTA (ER) cytoplasmic domain, GST-tagged recombinant protein (domain or fragment, Arabidopsis thaliana, UniProt Q42371 602-976, looked up)
chain: CRPHNPPPFLDGSLDKPVTYSTPKLVILHMNMALHVYEDIMRMTENLSEKYIIGHGASSTVYKCVLKNCKPVAIKRLYSHNPQSMKQFETELEMLSSIKHRNLVSLQAYSLSHLGSLLFYDYLENGSLWDLLHGPTKKKTLDWDTRLKIAYGAAQGLAYLHHDCSPRIIHRDVKSSNILLDKDLEARLTDFGIAKSLCVSKSHTSTYVMGTIGYIDPEYARTSRLTEKSDVYSYGIVLLELLTRRKAVDDESNLHHLIMSKTGNNEVMEMADPDITSTCKDLGVVKKVFQLALLCTKRQPNDRPTMHQVTRVLGSFMLSEQPPAATDTSATLAGSCYVDEYANLKTPHSVNCSSMSASDAQLFLRFGQVISQNSE
notes: ERECTA (ER), Arabidopsis thaliana, truncated to the cytoplasmic domain (CD), in pGEX-4T-1; also called GST-ER-CD; ER-CD; source: E. coli BL21, purified (Glutathione Sepharose beads)

Source: publication PMC6872632, “BIK1 and ERECTA Play Opposing Roles in Both Leaf and Inflorescence Development in Arabidopsis” (Frontiers in Plant Science, 2019)
